We go through six molecules from patent publication US20240261333A1, “NOVEL TARGETS FOR ENHANCING ANTI-TUMOR IMMUNITY” (THE BROAD INSTITUTE, INC., priority 2021, published 2024).

First the molecules themselves.
T1: B3GNT2 (Homo sapiens, UniProt Q9NY97)
T1 construct: The respective ORFs of candidate genes [CD274 (NM_014143), MCL1 (NM_021960), JUNB (NM_002229), and B3GNT2 (NM_006577)] were synthesized; expressed in transfected cells; host or cells: A375 melanoma cells (lentiviral ORF overexpression)
T1 sequence (Q9NY97 1-397): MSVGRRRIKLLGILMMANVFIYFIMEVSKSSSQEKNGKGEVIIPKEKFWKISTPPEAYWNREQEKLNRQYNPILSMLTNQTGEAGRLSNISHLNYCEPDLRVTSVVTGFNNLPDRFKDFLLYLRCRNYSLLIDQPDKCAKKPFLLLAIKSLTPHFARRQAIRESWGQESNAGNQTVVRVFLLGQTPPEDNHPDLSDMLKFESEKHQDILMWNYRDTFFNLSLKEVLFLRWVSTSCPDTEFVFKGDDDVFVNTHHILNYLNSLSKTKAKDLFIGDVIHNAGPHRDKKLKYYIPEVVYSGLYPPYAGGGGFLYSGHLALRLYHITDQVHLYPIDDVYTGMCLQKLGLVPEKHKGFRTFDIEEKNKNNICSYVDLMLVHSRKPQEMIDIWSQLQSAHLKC

B1: FUBP3 (protein)
chain: AELVQGQSAPVGMKAEGFVDALHRVRQIAAKIDSIPHLNNSTPLVDPSVYGYGVQKRPLDDGVGNQLGALVHQRTVITEEFKVPDKMVGFIIGRGGEQISRIQAESGCKIQIASESSGIPERPCVLTGTPESIEQAKRLLGQIVDRCRNGPGFHNDIDSNSTIQEILIPASKVGLVIGRGGETIKQLQERTGVKMVMIQDGPLPTGADKPLRITGDAFKVQQAREMVLEIIREKDQADFRGVRGDFNSRMGGGSIEVSVPRFAVGIVIGRNGEMIKKIQNDAGVRIQFKPDDGISPERAAQVMGPPDRCQHAAHIISELILTAQERDGFGGLAAARGRGRGRGDWSVGAPGGVQEITYTVPADKCGLVIGKGGENIKSINQQSGAHVELQRNPPPNSDPNLRRFTIRGVPQQIEVARQLIDEKVGGTNLGAPGAFGQSPFSQPPAPPHQNTFPPRSSGCFPNMAAKVNGNPHSTPVSGPPAFLTQGWGSTYQAWQQPTQQVPSQQSQPQSSQPNYSKAWEDYYKKQSHAASAAPQASSPPDYTMAWAEYYRQQVAFYGQTLGQAQAHSQEQ
B2: DDX5 (protein)
chain: MSGYSSDRDRGRDRGFGAPRFGGSRAGPLSGKKFGNPGEKLVKKKWNLDELPKFEKNFYQEHPDLARRTAQEVETYRRSKEITVRGHNCPKPVLNFYEANFPANVMDVIARQNFTEPTAIQAQGWPVALSGLDMVGVAQTGSGKTLSYLLPAIVHINHQPFLERGDGPICLVLAPTRELAQQVQQVAAEYCRACRLKSTCIYGGAPKGPQIRDLERGVEICIATPGRLIDFLECGKTNLRRTTYLVLDEADRMLDMGFEPQIRKIVDQIRPDRQTLMWSATWPKEVRQLAEDFLKDYIHINIGALELSANHNILQIVDVCHDVEKDEKLIRLMEEIMSEKENKTIVFVETKRRCDELTRKMRRDGWPAMGIHGDKSQQERDWVLNEFKHGKAPILIATDVASRGLDVEDVKFVINYDYPNSSEDYIHRIGRTARSTKTGTAYTFFTPNNIKQVSDLISVLREANQAINPKLLQLVEDRGSGRSRGRGGMKDDRRDRYSAGKRGGFNTFRDRENYDRGYSSLLKRDFGAKTQNGVYSAANYTNGSFGSNFVSAGIQTSFRTGNPTGTYQNGYDSTQQYGSNVPNMHNGMNQQAYAYPATAAAPMIGYPMPTGYSQ
B3: SAMM50 (protein)
chain: MGTVHARSLEPLPSSGPDFGGLGEEAEFVEVEPEAKQEILENKDVVVQHVHFDGLGRTKDDIIICEIGDVFKAKNLIEVMRKSHEAREKLLRLGIFRQVDVLIDTCQGDDALPNGLDVTFEVTELRRLTGSYNTMVGNNEGSMVLGLKLPNLLGRAEKVTFQFSYGTKETSYGLSFFKPRPGNFERNFSVNLYKVTGQFPWSSLRETDRGMSAEYSFPIWKTSHTVKWEGVWRELGCLSRTASFAVRKESGHSLKSSLSHAMVIDSRNSSILPRRGALLKVNQELAGYTGGDVSFIKEDFELQLNKQLIFDSVFSASFWGGMLVPIGDKPSSIADRFYLGGPTSIRGFSMHSIGPQSEGDYLGGEAYWAGGLHLYTPLPFRPGQGGFGELFRTHFFLNAGNLCNLNYGEGPKAHIRKLAECIRWSYGAGIVLRLGNIARLELNYCVPMGVQTGDRICDGVQFGAGIRFL
B4: GGCT (protein)
chain: MANSGCKDVTGPDEESFLYFAYGSNLLTERIHLRNPSAAFFCVARLQDFKLDFGNSQGKTSQTWHGGIATIFQSPGDEVWGVVWKMNKSNLNSLDEQEGVKSGMYVVIEVKVATQEGKEITCRSYLMTNYESAPPSPQYKKIICMGAKENGLPLEYQEKLKAIEPNDYTGKVSEEIEDIIKKGETQTL
B5: NUFIP2 (protein)
chain: MEEKPGQPQPQHHHSHHHPHHHPQQQQQQPHHHHHYYFYNHSHNHHHHHHHQQPHQYLQHGAEGSPKAQPKPLKHEQKHTLQQHQETPKKKTGYGELNGNAGEREISLKNLSSDEATNPISRVLNGNQQVVDTSLKQTVKANTFGKAGIKTKNFIQKNSMDKKNGKSYENKSGENQSVDKSDTIPIPNGVVTNNSGYITNGYMGKGADNDGSGSESGYTTPKKRKARRNSAKGCENLNIVQDKIMQQETSVPTLKQGLETFKPDYSEQKGNRVDGSKPIWKYETGPGGTSRGKPAVGDMLRKSSDSKPGVSSKKFDDRPKGKHASAVASKEDSWTLFKPPPVFPVDNSSAKIVPKISYASKVKENLNKTIQNSSVSPTSSSSSSSSTGETQTQSSSRLSQVPMSALKSVTSANFSNGPVLAGTDGNVYPPGGQPLLTTAANTLTPISSGTDSVLQDMSLTSAAVEQIKTSLFIYPSNMQTMLLSTAQVDLPSQTDQQNLGDIFQNQWGLSFINEPSAGPETVTGKSSEHKVMEVTFQGEYPATLVSQGAEIIPSGTEHPVFPKAYELEKRTSPQVLGSILKSGTTSESGALSLEPSHIGDLQKADTSSQGALVFLSKDYEIESQNPLASPTNTLLGSAKEQRYQRGLERNDSWGSFDLRAAIVYHTKEMESIWNLQKQDPKRIITYNEAMDSPDQ
B6: UBAP2L (protein)
chain: MMTSVGTNRARGNWEQPQNQNQTQHKQRPQATAEQIRLAQMISDHNDADFEEKVKQLIDITGKNQDECVIALHDCNGDVNRAINVLLEGNPDTHSWEMVGKKKGVSGQKDGGQTESNEEGKENRDRDRDYSRRRGGPPRRGRGASRGREFRGQENGLDGTKSGGPSGRGTERGRRGRGRGRGGSGRRGGRFSAQGMGTFNPADYAEPANTDDNYGNSSGNTWNNTGHFEPDDGTSAWRTATEEWGTEDWNEDLSETKIFTASNVSSVPLPAENVTITAGQRIDLAVLLGKTPSTMENDSSNLDPSQAPSLAQPLVFSNSKQTAISQPASGNTFSHHSMVSMLGKGFGDVGEAKGGSTTGSQFLEQFKTAQALAQLAAQHSQSGSTTTSSWDMGSTTQSPSLVQYDLKNPSDSAVHSPFTKRQAFTPSSTMMEVFLQEKSPAVATSTAAPPPPSSPLPSKSTSAPQMSPGSSDNQSSSPQPAQQKLKQQKKKASLTSKIPALAVEMPGSADISGLNLQFGALQFGSEPVLSDYESTPTTSASSSQAPSSLYTSTASESSSTISSNQSQESGYQSGPIQSTTYTSQNNAQGPLYEQRSTQTRRYPSSISSSPQKDLTQAKNGFSSVQATQLQTTQSVEGATGSAVKSDSPSTSSIPPLNETVSAASLLTTTNQHSSSLGGLSHSEEIPNTTTTQHSSTLSTQQNTLSSSTSSGRTSTSTLLHTSVESEANLHSSSSTFSTTSSTVSAPPPVVSVSSSLNSGSSLGLSLGSNSTVTASTRSSVATTSGKAPPNLPPGVPPLLPNPYIMAPGLLHAYPPQVYGYDDLQMLQTRFPLDYYSIPFPTPTTPLTGRDGSLASNPYSGDLTKFGRGDASSPAPATTLAQPQQNQTQTHHTTQQTFLNPALPPGYSYTSLPYYTGVPGLPSTFQYGPAVFPVAPTSSKQHGVNVSVNASATPFQQPSGYGSHGYNTGVSVTSSNTGVPDISGSVYSKTQQSFEKQGFHSGTPAASFNLPSALGSGGPINPATAAAYPPAPFMHILTPHQQPHSQILHHHLQQDGQTGSGQRSQTSSIPQKPQTNKSAYNSYSWGAN

One assay has as its target T1, B3GNT2. Description: Co-IP of FLAG-tagged B3GNT2 followed by mass spectrometry. To be noted: Co-IP followed by mass spectrometry of B3GNT2; C-term tag, FLAG pull-down. The format is cell-based. Also noted: C-term IgG / C-term flag: unit not given here. In short, it runs like this: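 Co-purifying proteins were identified by fractionated nano-LC–MS/MS on an Orbitrap Elite, run data-dependent. Beforehand, lysates in 1% Triton X-100/HEPES buffer were incubated overnight at 4° C with anti-FLAG or […] and pulled down on Protein A/G magnetic beads for 4 h. Duplicate biological replicates.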
B1 came in with a C-term flag of 9.

For B2, the C-term flag is recorded as 22.

The molecule B3 registered a C-term flag of 0.

The molecule B4 came in with a C-term flag of 0.

The molecule B5 showed a C-term flag of 5.

Take B6: the C-term flag is on record as 19.

Still in this assay, the particulars now being: Co-IP followed by mass spectrometry of B3GNT2; C-term tag, IgG pull-down.
For B1, the “C-term IgG” value turned out to be 7.

Regarding B2, the “C-term IgG” value stood at 16.

As to B3, the “C-term IgG” value is given as 0.

On to B4, for which the “C-term IgG” value is on record as 0.

Regarding B5, the “C-term IgG” value is on record as 4.

Turning to B6, the “C-term IgG” value amounted to 15.

Staying with this assay, now noted: Co-IP followed by mass spectrometry of B3GNT2; N-term tag, FLAG pull-down.
Turning to B1, the “N-term FLAG” value was determined as 8.

In the case of B2, the “N-term FLAG” value is 16.

Consider B3, for which the “N-term FLAG” value is 3.

Take B4: the “N-term FLAG” value was 3.

For B5, the “N-term FLAG” value is 3.

Take B6: the “N-term FLAG” value turned out to be 20.

Staying with this assay, now noted: Co-IP followed by mass spectrometry of B3GNT2; N-term tag, IgG pull-down.
As for B1, the “N-term IgG” value is on record as 8.

Regarding B2, the “N-term IgG” value worked out at 18.

With B3, the “N-term IgG” value is given as 0.

For B4, the “N-term IgG” value came to 0.

Take B5: the “N-term IgG” value is listed as 3.

With B6, the “N-term IgG” value turned out to be 20.
